Data from the supplement of paper PMC9112550, “Optimization of the antimicrobial peptide Bac7 by deep mutational scanning” (BMC Biology, 2022).

system: Escherichia coli TOP10; test: shrunken log2 fold change of peptide-encoding DNA abundance (4.5 h post-induction vs induction); higher = less antimicrobial activity (less host growth inhibition); conditions: time post-induction: 4.5 h; library: site-saturation at positions 5, 18, 19, 20
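Note: peptides expressed intracellularly from a pBAD plasmid library in pooled LB shake-flask culture, induced with 0.3% L-arabinose, DNA abundance read by NGS, three biological replicates, DESeq2 with apeglm shrinkage.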

| Sequence | shrunken log2 fold change |
| --- | --- |
| RRIRQRPPRLPRPRPRPILFPRP | 0.0255 |
| RRIRNRPPRLPRPRPRPEWSPRP | 0.406 |
| RRIRWRPPRLPRPRPRPNDHPRP | -0.0566 |
| RRIRSRPPRLPRPRPRPTTKPRP | 0.0807 |
| RRIRSRPPRLPRPRPRPDGHPRP | -0.0734 |
| RRIRWRPPRLPRPRPRPRKLPRP | 0.133 |
| RRIRARPPRLPRPRPRPYNLPRP | -0.00894 |
| RRIRLRPPRLPRPRPRPCTYPRP | -0.683 |
| RRIRGRPPRLPRPRPRPPTDPRP | 1.24 |
| RRIRFRPPRLPRPRPRPNGKPRP | 0.0809 |
| RRIRPRPPRLPRPRPRPNSQPRP | -0.314 |
| RRIRIRPPRLPRPRPRPVEMPRP | -0.299 |
| RRIRHRPPRLPRPRPRPAIWPRP | 0.137 |
| RRIRHRPPRLPRPRPRPNRCPRP | -0.259 |
| RRIRRRPPRLPRPRPRPKITPRP | -0.226 |
| RRIRTRPPRLPRPRPRPCWTPRP | -0.442 |
| RRIRRRPPRLPRPRPRPARHPRP | 0.447 |
| RRIRRRPPRLPRPRPRPAGKPRP | 0.211 |
| RRIRCRPPRLPRPRPRPDVIPRP | -0.405 |
| RRIRKRPPRLPRPRPRPANYPRP | 0.0421 |
| RRIRVRPPRLPRPRPRPGLLPRP | -0.146 |
| RRIRHRPPRLPRPRPRPVREPRP | 0.522 |
| RRIRCRPPRLPRPRPRPHEWPRP | 0.00702 |
| RRIRTRPPRLPRPRPRPDGTPRP | -0.208 |
| RRIRSRPPRLPRPRPRPWTSPRP | 0.0101 |

| Sequence | shrunken log2 fold change |
| --- | --- |
| RRIRERPPRLPRPRPRPVFDPRP | -0.461 |
| RRIRFRPPRLPRPRPRPWYKPRP | -0.145 |
| RRIRNRPPRLPRPRPRPQHVPRP | 0.000105 |
| RRIRRRPPRLPRPRPRPRMPPRP | 0.381 |
| RRIRPRPPRLPRPRPRPDFLPRP | -0.235 |
| RRIRLRPPRLPRPRPRPMPPPRP | 0.15 |
| RRIRRRPPRLPRPRPRPHTCPRP | 0.0847 |
| RRIRGRPPRLPRPRPRPTGEPRP | 0.0778 |
| RRIRDRPPRLPRPRPRPLHGPRP | 0.01 |
| RRIRLRPPRLPRPRPRPEYCPRP | 0.0552 |
| RRIRPRPPRLPRPRPRPGCMPRP | 0.179 |
| RRIRIRPPRLPRPRPRPRPDPRP | 0.0926 |
| RRIRIRPPRLPRPRPRPHPVPRP | 0.0514 |
| RRIRVRPPRLPRPRPRPMCVPRP | 0.103 |
| RRIRERPPRLPRPRPRPDEVPRP | 0.0489 |
| RRIRARPPRLPRPRPRPPAGPRP | 0.883 |
| RRIRPRPPRLPRPRPRPTGTPRP | 0.104 |
| RRIRNRPPRLPRPRPRPTPNPRP | 0.185 |
| RRIRYRPPRLPRPRPRPFKGPRP | 0.00253 |
| RRIRYRPPRLPRPRPRPTYAPRP | 3.45 |
| RRIRYRPPRLPRPRPRPWCSPRP | -0.504 |
| RRIRQRPPRLPRPRPRPNAQPRP | 0.0116 |
| RRIRDRPPRLPRPRPRPNRPPRP | 0.0951 |
| RRIRWRPPRLPRPRPRPDIHPRP | -0.196 |
| RRIRVRPPRLPRPRPRPHALPRP | -0.129 |

| Sequence | shrunken log2 fold change |
| --- | --- |
| RRIRIRPPRLPRPRPRPAMHPRP | -0.221 |
| RRIRPRPPRLPRPRPRPHHSPRP | -0.454 |
| RRIRDRPPRLPRPRPRPRDPPRP | 2.7 |
| RRIRHRPPRLPRPRPRPDEKPRP | -0.00141 |
| RRIRLRPPRLPRPRPRPFRCPRP | -0.181 |
| RRIRARPPRLPRPRPRPFHIPRP | -0.906 |
| RRIRDRPPRLPRPRPRPDAEPRP | 1.23 |
| RRIRWRPPRLPRPRPRPCVCPRP | 0.222 |
| RRIRGRPPRLPRPRPRPRVRPRP | 0.789 |
| RRIRTRPPRLPRPRPRPLVEPRP | -0.0326 |
| RRIRVRPPRLPRPRPRPPKKPRP | 0.167 |
| RRIRCRPPRLPRPRPRPMEVPRP | 0.015 |
| RRIRPRPPRLPRPRPRPTYYPRP | -0.636 |
| RRIRHRPPRLPRPRPRPNHDPRP | -0.719 |
| RRIRQRPPRLPRPRPRPWSGPRP | 0.082 |
| RRIRLRPPRLPRPRPRPFDFPRP | -0.281 |
| RRIRLRPPRLPRPRPRPQVHPRP | -0.184 |
| RRIRLRPPRLPRPRPRPYNEPRP | -0.78 |
| RRIRPRPPRLPRPRPRPKISPRP | -0.0927 |
| RRIRPRPPRLPRPRPRPQGRPRP | -0.0433 |
| RRIRQRPPRLPRPRPRPWYVPRP | -0.0198 |
| RRIRSRPPRLPRPRPRPQHKPRP | -0.131 |
| RRIRFRPPRLPRPRPRPLMSPRP | -0.0355 |
| RRIRMRPPRLPRPRPRPCAYPRP | 0.227 |
| RRIRPRPPRLPRPRPRPPKYPRP | -0.148 |

| Sequence | shrunken log2 fold change |
| --- | --- |
| RRIRERPPRLPRPRPRPPFQPRP | 0.016 |
| RRIRQRPPRLPRPRPRPHARPRP | -0.00608 |
| RRIRKRPPRLPRPRPRPEATPRP | 3.17 |
| RRIRPRPPRLPRPRPRPHYFPRP | -0.335 |
| RRIRRRPPRLPRPRPRPSWQPRP | 0.133 |
| RRIRRRPPRLPRPRPRPSNSPRP | -0.108 |
| RRIRDRPPRLPRPRPRPYCMPRP | -0.28 |
| RRIRKRPPRLPRPRPRPEFQPRP | 0.0241 |
| RRIRLRPPRLPRPRPRPDMQPRP | -0.0583 |
| RRIRRRPPRLPRPRPRPQPQPRP | 0.354 |
| RRIRERPPRLPRPRPRPAKLPRP | -0.0209 |
| RRIRSRPPRLPRPRPRPWHQPRP | -0.25 |
| RRIRPRPPRLPRPRPRPVGFPRP | 0.37 |
| RRIRHRPPRLPRPRPRPGDWPRP | -0.133 |
| RRIRMRPPRLPRPRPRPLCTPRP | 1.19 |
| RRIRFRPPRLPRPRPRPHFPPRP | -0.212 |
| RRIRPRPPRLPRPRPRPQLTPRP | -0.221 |
| RRIRQRPPRLPRPRPRPGYAPRP | 0.0993 |
| RRIRRRPPRLPRPRPRPNPYPRP | -0.0616 |
| RRIRHRPPRLPRPRPRPRQQPRP | 0.283 |
| RRIRPRPPRLPRPRPRPMWNPRP | -0.216 |
| RRIRVRPPRLPRPRPRPWTMPRP | -0.134 |
| RRIRGRPPRLPRPRPRPRPVPRP | 0.886 |
| RRIRERPPRLPRPRPRPTVEPRP | -0.0686 |
| RRIRPRPPRLPRPRPRPSQYPRP | -0.415 |

| Sequence | shrunken log2 fold change |
| --- | --- |
| RRIRNRPPRLPRPRPRPVDMPRP | -0.104 |
| RRIRCRPPRLPRPRPRPMECPRP | -0.00088 |
| RRIRRRPPRLPRPRPRPVTCPRP | -0.108 |
| RRIRKRPPRLPRPRPRPAKDPRP | 0.247 |
| RRIRNRPPRLPRPRPRPPDGPRP | 0.313 |
| RRIRYRPPRLPRPRPRPEQPPRP | 0.00487 |
| RRIRTRPPRLPRPRPRPQAKPRP | -0.147 |
| RRIRRRPPRLPRPRPRPDMQPRP | 0.272 |
| RRIRCRPPRLPRPRPRPGTDPRP | -0.00121 |
| RRIRERPPRLPRPRPRPNEAPRP | -0.0218 |
| RRIRPRPPRLPRPRPRPFDPPRP | -0.0325 |
| RRIRHRPPRLPRPRPRPRPAPRP | 0.479 |
| RRIRKRPPRLPRPRPRPFRPPRP | -0.0332 |
| RRIRKRPPRLPRPRPRPTMQPRP | 0.626 |
| RRIRRRPPRLPRPRPRPAFYPRP | 0.654 |
| RRIRCRPPRLPRPRPRPTTFPRP | -0.635 |
| RRIRGRPPRLPRPRPRPQVMPRP | 0.532 |
| RRIRARPPRLPRPRPRPFWHPRP | 0.165 |
| RRIRQRPPRLPRPRPRPLFWPRP | -0.23 |
| RRIRQRPPRLPRPRPRPLFGPRP | 0.107 |
| RRIRTRPPRLPRPRPRPDFGPRP | -0.0474 |
| RRIRVRPPRLPRPRPRPICHPRP | -0.224 |
| RRIRMRPPRLPRPRPRPKWNPRP | 0.523 |
| RRIRVRPPRLPRPRPRPQNLPRP | -0.672 |
| RRIRYRPPRLPRPRPRPRHYPRP | -0.974 |

| Sequence | shrunken log2 fold change |
| --- | --- |
| RRIRPRPPRLPRPRPRPPFTPRP | 0.185 |
| RRIRFRPPRLPRPRPRPSVQPRP | -0.241 |
| RRIRNRPPRLPRPRPRPNFHPRP | -0.048 |
| RRIRERPPRLPRPRPRPFNCPRP | 0.0173 |
| RRIRHRPPRLPRPRPRPCKDPRP | -0.332 |
| RRIRGRPPRLPRPRPRPQQSPRP | 0.465 |
| RRIRNRPPRLPRPRPRPHIFPRP | -0.0701 |
| RRIRNRPPRLPRPRPRPQIRPRP | -0.0373 |
| RRIRARPPRLPRPRPRPQAMPRP | 0.132 |
| RRIRPRPPRLPRPRPRPDVAPRP | -0.0448 |
| RRIRNRPPRLPRPRPRPHDFPRP | 0.137 |
| RRIRLRPPRLPRPRPRPRFQPRP | 0.0867 |
| RRIRKRPPRLPRPRPRPHHSPRP | -0.298 |
| RRIRNRPPRLPRPRPRPRSWPRP | 0.201 |
| RRIRIRPPRLPRPRPRPAAPPRP | 0.47 |
| RRIRHRPPRLPRPRPRPVRQPRP | 0.0261 |
| RRIRHRPPRLPRPRPRPDLVPRP | -0.104 |
| RRIRKRPPRLPRPRPRPESIPRP | 0.235 |
| RRIRSRPPRLPRPRPRPWTCPRP | 0.00516 |
| RRIRTRPPRLPRPRPRPSVHPRP | -0.237 |
| RRIRTRPPRLPRPRPRPQMDPRP | -0.195 |
| RRIRERPPRLPRPRPRPYDQPRP | -0.518 |
| RRIRSRPPRLPRPRPRPPNHPRP | -0.16 |
| RRIRWRPPRLPRPRPRPSKAPRP | -0.287 |
| RRIRDRPPRLPRPRPRPIGLPRP | -0.00129 |
